Two molecules from paper PMC9881579 can be followed below.

Test [1] deals with LHD206A. The test can be described thus: BLI; biotinylated protomer on streptavidin biosensors, designed partner in solution; 25 °C; 10 mM HEPES pH 7.4, 150 mM NaCl, 3 mM EDTA, 0.05% Surfactant P20, 1 mg/ml BSA; steady-state fit, 1:1 model. A general note: Biolayer interferometry detects binding as a change in optical thickness at a sensor tip.
In test [2] the target is LHD206A. The test can be described thus: BLI; biotinylated protomer on streptavidin biosensors, designed partner in solution; 25 °C; 10 mM HEPES pH 7.4, 150 mM NaCl, 3 mM EDTA, 0.05% Surfactant P20, 1 mg/ml BSA; global kinetic fit, 1:1 model.
Test [3] has as its target LHD206A, split luciferase construct. The test can be described thus: split reporter (BiFC, NanoBiT); smBiT:lgBiT equilibrium binding in E. coli lysate; one component at 1 nM, the other titrated; overnight at room temperature; 20 mM sodium phosphate, 100 mM NaCl, pH 7.4, 0.05% Tween 20.

B1: LHD206B (designed binder)
chain: GRQEKVLKSIEETVRKMGVTMETHRSGNEVKVVIKGLHKSQQEQLLKDVLKTANKQGVNVHISFRGDTVTIRVRE
modifications: not checked
Regarding B1, the dissociation constant Kd in test [1] stood at 8.4 nM. In test [2], this molecule displayed a Kd of 2.8 nM, a koff of 0.00075 s⁻¹ and an on-rate constant (kon) of 270000 M⁻¹ s⁻¹.

B2: LHD206B, split luciferase construct (designed binder)
chain: B1 chain
modifications: here or on the partner: Strep-tag, sfGFP, GS-linker and split luciferase fragment left out; protomer taken from the unfused monovalent entry / Strep-tag, sfGFP, GS-linker and split luciferase fragment left out; protomer take
In turn, B2 showed a Kd in test [3] of 11 nM.

The term Kd denotes a measure of binding affinity in units of concentration. A lower Kd goes with higher affinity. Usually koff stands for the rate constant with which the complex falls apart. High values mean a short-lived complex, low ones a long-lived complex. Usually kon stands for a measure of how fast the partners come together. Low readings indicate slow association, high ones fast association.
